Laboratory results published in patent publication US20200199204A1 (UNITED STATES OF AMERICA AS REPRESENTED BY THE SECRETARY …, published 2020).

Tests used:
Assay in all cases: cell-based or functional assay
[1] = target: HIV-1 Env of strain CNE3 (clade AE), on Env-pseudovirus (HIV-1 strain CNE3)
[2] = target: HIV-1 Env of strain TH976.17 (clade AE), on Env-pseudovirus (HIV-1 strain TH976.17)
HIV-1 Env of CAP256.PI = HIV-1 Env of CAP256.PI (HIV-1)
HIV-1 Env of CAP256.SU = HIV-1 Env of CAP256.SU (HIV-1)
HIV-1 Env of 96ZM651.02 = HIV-1 Env of 96ZM651.02 (HIV-1)
HIV-1 Env of CAP210.E8 = HIV-1 Env of CAP210.E8 (HIV-1)
HIV-1 Env of CAP244.D3 = HIV-1 Env of CAP244.D3 (HIV-1)
HIV-1 Env of CAP45.G3 = HIV-1 Env of CAP45.G3 (HIV-1)
HIV-1 Env of DU156.12 = HIV-1 Env of DU156.12 (HIV-1)
HIV-1 Env of DU172.17 = HIV-1 Env of DU172.17 (HIV-1)
HIV-1 Env of DU422.01 = HIV-1 Env of DU422.01 (HIV-1)
HIV-1 Env of ZM109.4 = HIV-1 Env of ZM109.4 (HIV-1)
HIV-1 Env of ZM135.10a = HIV-1 Env of ZM135.10a (HIV-1)
HIV-1 Env of ZM197.7 = HIV-1 Env of ZM197.7 (HIV-1)
HIV-1 Env of ZM214.15 = HIV-1 Env of ZM214.15 (HIV-1)
HIV-1 Env of ZM233.6 = HIV-1 Env of ZM233.6 (HIV-1)
HIV-1 Env of ZM249.1 = HIV-1 Env of ZM249.1 (HIV-1)
HIV-1 Env of ZM53.12 = HIV-1 Env of ZM53.12 (HIV-1)
HIV-1 Env of 0260.v5.c36 = HIV-1 Env of 0260.v5.c36 (HIV-1)
HIV-1 Env of BG505.w6m = HIV-1 Env of BG505.w6m (HIV-1)
HIV-1 Env of KER2008.12 = HIV-1 Env of KER2008.12 (HIV-1)
HIV-1 Env of KER2018.11 = HIV-1 Env of KER2018.11 (HIV-1)
HIV-1 Env of MB201 = HIV-1 Env of MB201 (HIV-1)
HIV-1 Env of MB539.2B7 = HIV-1 Env of MB539.2B7 (HIV-1)
HIV-1 Env of Q168.a2 = HIV-1 Env of Q168.a2 (HIV-1)
HIV-1 Env of Q23.17 = HIV-1 Env of Q23.17 (HIV-1)
HIV-1 Env of Q259.d2.17 = HIV-1 Env of Q259.d2.17 (HIV-1)
HIV-1 Env of Q461.e2 = HIV-1 Env of Q461.e2 (HIV-1)
HIV-1 Env of Q769.d22 = HIV-1 Env of Q769.d22 (HIV-1)
HIV-1 Env of Q842.d12 = HIV-1 Env of Q842.d12 (HIV-1)
HIV-1 Env of RW020.2 = HIV-1 Env of RW020.2 (HIV-1)
HIV-1 Env of UG037.8 = HIV-1 Env of UG037.8 (HIV-1)
HIV-1 Env of 6535.3 = HIV-1 Env of 6535.3 (HIV-1)
HIV-1 Env of AC10.29 = HIV-1 Env of AC10.29 (HIV-1)
HIV-1 Env of CAAN.A2 = HIV-1 Env of CAAN.A2 (HIV-1)
HIV-1 Env of PVO.04 = HIV-1 Env of PVO.04 (HIV-1)
HIV-1 Env of QH0692.42 = HIV-1 Env of QH0692.42 (HIV-1)
HIV-1 Env of REJO.67 = HIV-1 Env of REJO.67 (HIV-1)
HIV-1 Env of RHPA.7 = HIV-1 Env of RHPA.7 (HIV-1)
HIV-1 Env of SC422.8 = HIV-1 Env of SC422.8 (HIV-1)
HIV-1 Env of THRO.18 = HIV-1 Env of THRO.18 (HIV-1)
HIV-1 Env of TRJO.58 = HIV-1 Env of TRJO.58 (HIV-1)
HIV-1 Env of TRO.11 = HIV-1 Env of TRO.11 (HIV-1)
HIV-1 Env of WITO.33 = HIV-1 Env of WITO.33 (HIV-1)
HIV-1 Env of 191821.E6.1 = HIV-1 Env of 191821.E6.1 (HIV-1)
HIV-1 Env of 3016.V5.c36 = HIV-1 Env of 3016.V5.c36 (HIV-1)
HIV-1 Env of 6405.v4.c34 = HIV-1 Env of 6405.v4.c34 (HIV-1)
HIV-1 Env of C1080.c3 = HIV-1 Env of C1080.c3 (HIV-1)
HIV-1 Env of CM244.ec1 = HIV-1 Env of CM244.ec1 (HIV-1)
HIV-1 Env of CNE3 = HIV-1 Env of CNE3 (HIV-1)
HIV-1 Env of TH976.17 = HIV-1 Env of TH976.17 (HIV-1)

B1: CAP256-VRC26.12 (antibody, V domains shown)
VH: EVQLVQSGGGVVQPGRSLRLSCAAPYFEFGRYGFHWVRQAPGKGLEWVASISFAGRDYYHSPSVWGRFTISRDNSKNTLYLQMNSLRIEDTALYFCARDLRESECEEWESDYYDFGKKGPCVKPRGVAGGLDLWGQGTMVIVSS
VL: QSVLTQPPSVSTAPGQTVTVSCSGGTSNTGNNFVSWYQHLPGTAPKLLIYENNKRPLGVPDRFSGAKSGTSATLAITGLQTGDEGDYYCATWSGSLNIGTGTKVSVLG
Question: Which results are given for B1?
Answer: IC50, neutralization of Env-pseudovirus (TZM-bl assay) [1]: > 50 µg/mL; IC50, neutralization of Env-pseudovirus (TZM-bl assay) [2]: > 50 µg/mL

B2: CAP256-VRC26.03 (antibody, V domains shown)
VH: EVQLVESGGGVVQPGKSLRLSCAASRFSFNRYGMHWVRQAPGKGLEWVAAISYDGTDKYHADKVWGRFTISRDNSKNTLYLQMNSLRAEDTALYYCAKDLREDECEEWWSDYYDFGKQLPCRKSRGVAGIFDGWGQGTMVTVSS
VL: QSVLTQPPSVSAAPGQKVTISCSGSSSNIGNNFVSWYQQRPGTAPKILIYENNKRPSETPDRFSGSKSGTSATLAITGLQTADEAEYYCATWSASLSSARVFGTGTRITVLG
Question: Which “neutralization IC50” value (HIV-1 Env of CAP256.PI) does the source give for B2 here?
Answer: The value was greater than 50 µg/mL.

Question: What about the “neutralization IC50” value (HIV-1 Env of CAP256.SU) of the same binder?
Answer: Its value is 0.004 µg/mL.

Question: And the “neutralization IC50” value (HIV-1 Env of 96ZM651.02)?
Answer: Its value is greater than 50 µg/mL.

Question: What about the “neutralization IC50” value (HIV-1 Env of CAP210.E8) of the same binder?
Answer: The value was 0.011 µg/mL.

Question: And the “neutralization IC50” value (HIV-1 Env of CAP244.D3)?
Answer: The value was greater than 50 µg/mL.

Question: And the “neutralization IC50” value (HIV-1 Env of CAP45.G3)?
Answer: The value was 10.7 µg/mL.

Question: What about the “neutralization IC50” value (HIV-1 Env of DU156.12) of the same binder?
Answer: Its value is 0.117 µg/mL.

Question: And the “neutralization IC50” value (HIV-1 Env of DU172.17)?
Answer: Its value is greater than 50 µg/mL.

Question: And the “neutralization IC50” value (HIV-1 Env of DU422.01)?
Answer: Its value is 0.134 µg/mL.

Question: And the “neutralization IC50” value (HIV-1 Env of ZM109.4)?
Answer: The value was greater than 50 µg/mL.

Question: And the “neutralization IC50” value (HIV-1 Env of ZM135.10a)?
Answer: The value was greater than 50 µg/mL.

Question: What about the “neutralization IC50” value (HIV-1 Env of ZM197.7) of the same binder?
Answer: The value was 0.16 µg/mL.

Question: And the “neutralization IC50” value (HIV-1 Env of ZM214.15)?
Answer: Its value is 1.5 µg/mL.

Question: And the “neutralization IC50” value (HIV-1 Env of ZM233.6)?
Answer: Its value is 0.032 µg/mL.

Question: And the “neutralization IC50” value (HIV-1 Env of ZM249.1)?
Answer: Its value is 0.039 µg/mL.

Question: What about the “neutralization IC50” value (HIV-1 Env of ZM53.12) of the same binder?
Answer: Its value is 0.008 µg/mL.

Question: What about the “neutralization IC50” value (HIV-1 Env of 0260.v5.c36) of the same binder?
Answer: Its value is greater than 50 µg/mL.

Question: What about the “neutralization IC50” value (HIV-1 Env of BG505.w6m) of the same binder?
Answer: Its value is 4.76 µg/mL.

Question: And the “neutralization IC50” value (HIV-1 Env of KER2008.12)?
Answer: The value was greater than 50 µg/mL.

Question: And the “neutralization IC50” value (HIV-1 Env of KER2018.11)?
Answer: Its value is 0.003 µg/mL.

Question: And the “neutralization IC50” value (HIV-1 Env of MB201)?
Answer: The value was greater than 50 µg/mL.

Question: And the “neutralization IC50” value (HIV-1 Env of MB539.2B7)?
Answer: The value was greater than 50 µg/mL.

Question: And the “neutralization IC50” value (HIV-1 Env of Q168.a2)?
Answer: The value was greater than 50 µg/mL.

Question: And the “neutralization IC50” value (HIV-1 Env of Q23.17)?
Answer: The value was greater than 50 µg/mL.

Question: And the “neutralization IC50” value (HIV-1 Env of Q259.d2.17)?
Answer: The value was 0.014 µg/mL.

Question: And the “neutralization IC50” value (HIV-1 Env of Q461.e2)?
Answer: The value was greater than 50 µg/mL.

Question: And the “neutralization IC50” value (HIV-1 Env of Q769.d22)?
Answer: The value was greater than 50 µg/mL.

Question: What about the “neutralization IC50” value (HIV-1 Env of Q842.d12) of the same binder?
Answer: The value was greater than 50 µg/mL.

Question: What about the “neutralization IC50” value (HIV-1 Env of RW020.2) of the same binder?
Answer: The value was greater than 50 µg/mL.

Question: And the “neutralization IC50” value (HIV-1 Env of UG037.8)?
Answer: Its value is greater than 50 µg/mL.

Question: What about the “neutralization IC50” value (HIV-1 Env of 6535.3) of the same binder?
Answer: The value was greater than 50 µg/mL.

Question: And the “neutralization IC50” value (HIV-1 Env of AC10.29)?
Answer: The value was greater than 50 µg/mL.

Question: And the “neutralization IC50” value (HIV-1 Env of CAAN.A2)?
Answer: Its value is greater than 50 µg/mL.

Question: And the “neutralization IC50” value (HIV-1 Env of PVO.04)?
Answer: Its value is greater than 50 µg/mL.

Question: And the “neutralization IC50” value (HIV-1 Env of QH0692.42)?
Answer: The value was greater than 50 µg/mL.

Question: And the “neutralization IC50” value (HIV-1 Env of REJO.67)?
Answer: Its value is greater than 50 µg/mL.

Question: What about the “neutralization IC50” value (HIV-1 Env of RHPA.7) of the same binder?
Answer: The value was greater than 50 µg/mL.

Question: What about the “neutralization IC50” value (HIV-1 Env of SC422.8) of the same binder?
Answer: Its value is greater than 50 µg/mL.

Question: And the “neutralization IC50” value (HIV-1 Env of THRO.18)?
Answer: Its value is greater than 50 µg/mL.

Question: What about the “neutralization IC50” value (HIV-1 Env of TRJO.58) of the same binder?
Answer: Its value is greater than 50 µg/mL.

Question: What about the “neutralization IC50” value (HIV-1 Env of TRO.11) of the same binder?
Answer: The value was greater than 50 µg/mL.

Question: What about the “neutralization IC50” value (HIV-1 Env of WITO.33) of the same binder?
Answer: The value was greater than 50 µg/mL.

Question: What about the “neutralization IC50” value (HIV-1 Env of 191821.E6.1) of the same binder?
Answer: The value was greater than 50 µg/mL.

Question: What about the “neutralization IC50” value (HIV-1 Env of 3016.V5.c36) of the same binder?
Answer: The value was 0.118 µg/mL.

Question: What about the “neutralization IC50” value (HIV-1 Env of 6405.v4.c34) of the same binder?
Answer: Its value is greater than 50 µg/mL.

Question: What about the “neutralization IC50” value (HIV-1 Env of C1080.c3) of the same binder?
Answer: Its value is 0.119 µg/mL.

Question: What about the “neutralization IC50” value (HIV-1 Env of CM244.ec1) of the same binder?
Answer: Its value is 0.003 µg/mL.

Question: And the “neutralization IC50” value (HIV-1 Env of CNE3)?
Answer: Its value is greater than 50 µg/mL.

Question: What about the “neutralization IC50” value (HIV-1 Env of TH976.17) of the same binder?
Answer: The value was greater than 50 µg/mL.
